Data as given in patent publication US20170002075A1 (AbbVie / Abbott, published 2017).
Changes are numbered by the printed parent chain.

B1: humanized anti-RAGE antibody h11E6.1 (antibody, V domains shown)
VH: EVQLVQSGSELKKPGASVKVSCKASGYTFTNFGMNWVRQAPGQGLEWMGYINTNTGESIYSEEFKGRFVFSLDTSVSTAYLQICSLKAEDTAVYYCARSRMVTAYGMDYWGQGTTVTVSS
VL: DIQMTQSPSSLSASVGDRVTITCKASQNVGTAVAWYQQKPGKAPKLLIYSASNRYTGVPSRFSGSGSGTDFTLTISSLQPEDFATYYCQQYSSYPLTFGQGTKLEIKR
notes: Full-length humanized antibody transiently produced in 293-6E cells
B2: humanized anti-RAGE antibody h11E6.13 (antibody, V domains shown)
VH: EIQLVQSGAEVKKPGASVKVSCKASGYTFTNFGMNWVRQAPGQGLEWMGYINTNTGESIYSEEFKGRFTFTLDTSTSTAYMELSSLRSEDTAVYFCARSRMVTAYGMDYWGQGTSVTVSS
VL: B1 VL
notes: as for B1
B3: humanized anti-RAGE antibody h11E6.3 (antibody, V domains shown)
VH: B1 VH
VL: EIVMTQSPATLSLSPGERATLSCKASQNVGTAVAWYQQKPGQAPRLLIYSASNRYTGIPARFSGSGSGTDFTLTISSLQSEDFAVYYCQQYSSYPLTFGQGTKLEIKR
notes: as for B1
B4: humanized anti-RAGE antibody h11E6.9 (antibody, V domains shown)
VH: B2 VH with I2V, F68V, F70M, L72R, F95Y
VL: B1 VL
notes: as for B1
B5: humanized anti-RAGE antibody h11E6.8 (antibody, V domains shown)
VH: B1 VH with V2I, Y95F
VL: B3 VL with A43S, Y49F, I58V, Y87F
notes: as for B1
B6: humanized anti-RAGE antibody h11E6.4 (antibody, V domains shown)
VH: B1 VH
VL: B3 VL with A43S, Y49F, I58V, Y87F
notes: as for B1
B7: humanized anti-RAGE antibody h11E6.7 (antibody, V domains shown)
VH: B1 VH with V2I, Y95F
VL: B3 VL
notes: as for B1
B8: humanized anti-RAGE antibody h11E6.5 (antibody, V domains shown)
VH: B1 VH with V2I, Y95F
VL: B1 VL
notes: as for B1
B9: humanized anti-RAGE antibody h11E6.11 (antibody, V domains shown)
VH: B2 VH with I2V, F68V, F70M, L72R, F95Y
VL: B3 VL
notes: as for B1
B10: humanized anti-RAGE antibody h11E6.15 (antibody, V domains shown)
VH: B2 VH
VL: B3 VL
notes: as for B1
B11: humanized anti-RAGE antibody h11E6.12 (antibody, V domains shown)
VH: B2 VH with I2V, F68V, F70M, L72R, F95Y
VL: B3 VL with A43S, Y49F, I58V, Y87F
notes: as for B1
B12: humanized anti-RAGE antibody h11E6.16 (antibody, V domains shown)
VH: B2 VH
VL: B3 VL with A43S, Y49F, I58V, Y87F
notes: as for B1
B13: C-terminal shortened husRAGE fusion protein (1-130-sRAGE-Fc) (Fc fusion)
chain: AQNITARIGEPLVLKCKGAPKKPPQRLEWKLNTGRTEAWKVLSPQGGGPWDSVARVLPNGSLFLPAVGIQDEGIFRCQAMNRNGKETKSNYRVRVYQIPGKPEIVDSA
notes: also called husRAGE-1-130-Fc; RAGE-Fc mutant protein consisting of the v-domain only; not shown: C-terminal part of a human IgG heavy chain ('hIgG lambda hc 257-Stop')
B14: 7F9-recombinant (antibody, V domains shown)
VH: EEKLEESGGGLVQLGGSMKISCVASGFTLSNYWMDWVRQSPEKGLEWIAEIRLKSNYYSTHYAESVKGRFSISRDDSKGSVSLQMDNLTAEDTGIYFCARNAYWYFDVWGTGTTVTVSS
VL: DIVMTQSHKFMSTSVGDRVSATCKASQDVGTSVAWYQQKLGQSPKLLIYWTSTRHTGVPDRFTGSGSGTDFTLTISNVQSEDLADYFCQQYNNYPLTFGDGTKLELKR
notes: also called recombinant chimeric anti-human RAGE monoclonal antibody 7F9 (human IgG1/kappa)
B15: 4E5-recombinant (antibody, V domains shown)
VH: QVQLQQSGAELVRPGTSVKVSCKASGYAFNNYLIEWIKQRPGQGLEWIGVINPGSGGTNHNEKFKVKATLTADKSSSTAYIQLSSLTSDDSAVYFCARSAGTARARFAYWGQGTLVTVSA
VL: DIQMTQSPSSLSASLGERVSLTCRASQDIGSSLNWLQQEPDGTIKRLIYATSSLDSGVPKRFSGSRSGSDYSLTISSLESEDFVDYYCLQYASFPFTFGSGTKLEIKR
notes: also called recombinant chimeric anti-human RAGE monoclonal antibody 4E5 (human IgG1/kappa)
B16: 11E6-recombinant (antibody, V domains shown)
VH: QIQLVQSGPELKKPGETVKISCKASGYTFTNFGMNWVKQAPGKGLKWMGYINTNTGESIYSEEFKGRFAFSLETSASTAYLQINNLKNEDTATYFCARSRMVTAYGMDYWGQGTSVTVSS
VL: DIVMTQSQKFMSTSVGDRVSITCKASQNVGTAVAWYQQRPGQSPKLLIFSASNRYTGVPDRFTGSGSGTDFTLTLSNMQPEDLADYFCQQYSSYPLTFGVGTKLELKR
notes: also called recombinant chimeric anti-human RAGE monoclonal antibody 11E6 (human IgG1/kappa)

target: T1, hRAGE (1-331) / human sRAGE 1-331, V#400 (human, UniProt Q15109 23-331); assay: competition ELISA on coated hRAGE (1-331); competitor biotinylated m11E6 at 0.3 µg/ml
T1 construct: also called sRAGE [RAGE (1-331)]; RAGE (antigen of the Biacore runs)
T1 sequence (Q15109 23-331): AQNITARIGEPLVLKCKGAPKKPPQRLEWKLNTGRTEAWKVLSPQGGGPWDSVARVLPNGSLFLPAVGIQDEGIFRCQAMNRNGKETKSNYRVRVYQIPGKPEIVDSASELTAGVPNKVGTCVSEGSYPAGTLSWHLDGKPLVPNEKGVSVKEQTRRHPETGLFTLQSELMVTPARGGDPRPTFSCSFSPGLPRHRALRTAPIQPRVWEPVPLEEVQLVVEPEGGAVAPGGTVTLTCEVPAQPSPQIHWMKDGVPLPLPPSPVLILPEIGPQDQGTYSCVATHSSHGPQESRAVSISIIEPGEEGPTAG
Protocol: ELISA plates (Costar 3369) were coated overnight at 4° C. with 50 μl/well of 2 μg/ml hRAGE (1-331) in 0.2 M sodium carbonate-bicarbonate buffer, pH 9.4, washed with Wash Buffer (PBS containing 0.1% Tween 20), and blocked for 1 hr at room temperature with 200 pd/well of 2% nonfat dry milk in PBS. […] After incubating the plates for 1 hr at room temperature, and washing with Wash Buffer, bound antibodies were detected using 100 μl/well of 1:10,000 dilution of HRP-conjugated streptavidin (Fitzgerald) in ELISA buffer. After incubating for 1 hr at room temperature, and washing with Wash Buffer, color development was performed by adding 100 μl/well of TMB Buffer (Zymed). After incubating for 15 min at room temperature, color development was stopped by adding 50 μl/well of IN hydrochloric acid. Absorbance was read at 490 nm.

| Binder | IC50 [nM] |
| --- | --- |
| B1 | 19.7 |
| B2 | 16.8 |
| B3 | 18.8 |
| B4 | 17.9 |
| B5 | 10.8 |
| B6 | 14.1 |
| B7 | 15.5 |
| B8 | 16.1 |
| B9 | 19.9 |
| B10 | 14 |
| B11 | 11.3 |
| B12 | 9.2 |

target: T1, hRAGE (1-331) / human sRAGE 1-331, V#400; assay: Biacore SPR, mAb captured via anti-human Fc, sRAGE (1-331) injected 30-0.12 nM, PBS-P buffer, 1:1 fit
Text: Biacore 2000 and Biacore T100 instruments were used to measure anti-RAGE mAb binding kinetics. The assay format for mAb affinity analysis was Fc-based capture via immobilized anti-Fc antibodies. A standard amine coupling protocol was employed to immobilize Fc-specific IgG via primary amines to the carboxy-methyl (CM) dextran surface of CM5 sensorchips (Biacore). For the study of mouse anti-RAGE mAbs, anti-mouse Fc (Biacore, anti-mouse, BR-1005-14) was used as the immobilized capture reagent and for the study of humanized anti-RAGE mAbs, anti-human Fc (Pierce 31125) was used as the immobilized capture reagent. An automated protocol, available on the Biacore 2000 and Biacore T100, was used to immobilize 8000-10000 RU of capture reagent in all 4 flowcells of the sensorchip. Briefly, the CM-dextran surfaces were activated by freshly prepared 1:1 50 mM N-hydroxysuccinimide (NHS):200 mM 3-(N,N-dimethylamino) propyl-N-ethylcarbodiimide (EDC). Then the anti-Fc IgG capture reagent (20 ug/ml in 10 mM sodium acetate, pH4.5) was applied to the surface followed by deactivation of the surface and blocking of the residual reactive sites with 1M ethanolamine (pH 8.5).
The running buffer employed was PBS-P [1×PBS (Sigma P3813), pH 7.4, 0.005% P20 surfactant (Biacore)] for the humanized antibodies. Each experimental cycle consisted of the following steps: 1) anti-RAGE mAbs were captured in flowcells 2, 3 or 4 to a level of 50-200 RU (depending on the antigen). All measurements were referenced against flowcell 1 which had no captured anti-RAGE mAb. 2) Antigen was injected through all 4 flowcells, 240 ul at 80 ul/min. After the antigen injection, dissociation was monitored for 600 seconds at 80 ul/min. 3) the anti-Fc capture surface was regenerated with low pH glycine. For kinetic determinations, antigen injections were a 3 fold dilution series from either 30 nM-0.12 nM (for sRAGE [RAGE (1-331)] and buffer only in randomized duplicates.
Data were processed using either Biacore evaluation software or Scrubber 2.0 software (BioLogic Software). Briefly, the data were double referenced by first, subtracting the signal from the reference cell and second, by subtracting the signal from buffer-only injections.

| Binder | Kd [nM] | koff [s⁻¹] | kon [M⁻¹ s⁻¹] |
| --- | --- | --- | --- |
| B5 | 0.033 | 0.00084 | 2.5e+07 |
| B11 | 0.083 | 0.0017 | 2e+07 |
| B12 | 0.05 | 0.0014 | 2.8e+07 |

target: T2, biotinylated Aβ1-42 globulomer (UniProt P05067 672-713, 1/5 of the Aβ1-42 peptide used was Biotinyl-Amyloid β-Protein (1-42)); assay: ALPHA screen: RAGE-Fc titrated on protein A acceptor beads, biotinylated Aβ globulomer on streptavidin donor beads
T2 construct: domain: Amyloid β-Protein (1-42); Oligomer of Aβ1-42; Concentrations are calculated as Aβ1-42 monomer; also called Aβ-globulomer; amyloid Aβ-globulomers

| Binder | binding result |
| --- | --- |
| B13 | no binding (tested: about 30 ng/µl) |

target: T3, recombinant human RAGE (plate coat of the competition ELISA of Example 1.4); assay: competition ELISA on plates coated with recombinant human RAGE (2 µg/mL); competitor: biotinylated hybridoma-derived 7F9 (7F9-biotin), streptavidin-HRP, OD 450 nm; the unit comes from the axis 'Log MAbs (M)'
T3 construct: not shown: The carrier of the coated preparation, if it had one
Protocol: (§1) The purified chimeric anti-human RAGE monoclonal antibodies were tested for their ability to bind human RAGE in a competition ELISA. […] Equal volumes (50 μL) of each recombinant chimeric anti-human RAGE monoclonal antibodies or hybridoma-derived anti-human RAGE monoclonal antibodies and each corresponding biotinylated hybridoma-derived anti-RAGE mAbs were mixed. 50 μL of this mixture was then added to ELISA plates pre-coated with recombinant human RAGE at 2 μg/mL and incubated for 1.5 hours at room temperature. Wells were washed three times with PBS+0.05% Tween-20. Streptavidin HRP (1 mg/mL) was diluted 1:16000 in PBST+10% Superblock; 50 µL/well was added and the plates incubated for 1 hour at room temperature. Plates were washed 3 times with PBS+0.05% Tween-20. 50 µL of TMB solution (Sigma, St Louis, Mo.) was added to each well and incubated for 10 minutes at room temperature. The reaction was stopped by addition of IN sulphuric acid. Plates were read spectrophotometrically at a wavelength of 450 nm.

| Binder | EC50 [nM] |
| --- | --- |
| B14 | 108 |

target: T3, recombinant human RAGE (plate coat of …); assay: competition ELISA on plates coated with recombinant human RAGE (2 µg/mL); competitor: biotinylated hybridoma-derived 4E5 (4E5-biotin), streptavidin-HRP, OD 450 nm; the unit comes from the axis 'Log MAbs (M)'
Protocol: as §1

| Binder | EC50 [nM] |
| --- | --- |
| B15 | 66.2 |

target: T3, recombinant human RAGE (plate coat of …); assay: competition ELISA on plates coated with recombinant human RAGE (2 µg/mL); competitor: biotinylated hybridoma-derived 11E6 (11E6-biotin), streptavidin-HRP, OD 450 nm; the unit comes from the axis 'Log MAbs (M)'
Protocol: as §1

| Binder | EC50 [nM] |
| --- | --- |
| B16 | 64.7 |
